# The supplement of paper PMC10567573
# B1: TRIM15 (parent)
# chain: QSSGKILLCPLCQEEEQAETPMAP
# B2: TLE6 (parent)
# chain: FWHDTLTEQLWRIFAGVHDEKAKP
# Variants of: B1
# Experiment: protein stability index of a GFP-peptide fusion (GPS, HEK-293T) (PSI 1-6); higher = more stable
# Settings: c terminus: a fixed tail appended
# 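Note: lentivirally expressed fusions sorted by FACS into six bins by GFP to DsRed ratio, PSI derived from sequencing read proportions per bin multiplied by bin number.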
row,Variant,protein stability index
1,Q1D,3.99
2,Q1S,3.28
3,Q1I,3.27
4,Q1G,3.8
5,Q1L,3.13
6,Q1A,3.2
7,Q1Y,1.58
8,Q1F,1.4
9,Q1C,2.72
10,Q1R,3.35
11,Q1E,3.98
12,Q1V,2.87
13,Q1K,3.46
14,Q1W,3.08
15,Q1T,3.16
16,Q1N,3.06
17,Q1P,2.73
18,Q1M,2.63

row,Variant,protein stability index
1,S3A,3.62
2,S2E,4
3,S2R,3.28
4,S2V,2.56
5,S2N,2.86
6,S2C,2.88
7,S2M,2.79
8,S2L,2.67
9,S2T,3.34
10,S2A,3.52
11,S2D,3.78
12,S2H,3.32
13,S2Y,2.85
14,S2F,2.18
15,S2K,3.47
16,S2W,2.38
17,S2I,2.62

# Variants of: B2
# Experiment: as above
# Settings: c terminus: a fixed tail appended
row,Variant,protein stability index
1,A15G,2.02
2,A15H,1.86
3,A15Y,1.62
4,A15T,1.89
5,A15V,2.82
6,A15K,1.81
7,A15N,1.68
8,A15C,2.23
9,A15Q,1.61
10,A15S,2.43
11,P24M,1.64
12,P24Q,1.9
13,P24L,1.5
14,P24H,2.1
15,P24C,2.95
16,P24A,1.7
17,P24N,2.68
18,P24G,1.66
19,P24W,1.92
20,P24K,1.78
21,P24T,1.86
22,P24I,3.17
23,P24Y,1.58
24,P24D,1.65
25,A22P,2.11

row,Variant,protein stability index
1,A22S,2.06
2,A22L,1.58
3,A22E,1.75
4,A22Y,1.37
5,A22V,1.8
6,A22C,1.81
7,A22T,2.15
8,A22N,1.94
9,A22F,3.14
10,A22Q,1.53
11,A22H,1.83
12,R12F,2.21
13,R12Q,1.94
14,R12K,2.17
15,R12S,2.06
16,R12G,2.23
17,R12I,2.73
18,R12D,1.94
19,R12V,1.71
20,R12H,2.11
21,R12P,2.43
22,R12N,2.2
23,R12T,2.02
24,R12W,2.47
25,R12M,1.52

row,Variant,protein stability index
1,Q9F,1.97
2,Q9I,2.55
3,Q9K,1.51
4,Q9S,2.04
5,Q9H,2.59
6,Q9G,2.65
7,Q9D,1.97
8,Q9A,3.78
9,Q9V,4.83
10,Q9W,2.79
11,Q9P,2.69
12,K23I,1.64
13,K23A,1.78
14,K23F,3.09
15,K23D,1.49
16,K23V,2.71
17,K23S,2.17
18,K23P,1.78
19,K23M,2.8
20,K23R,1.52
21,K23H,2.5
22,K23Y,1.92
23,I13R,2.02
24,I13H,1.94
25,I13W,1.47

row,Variant,protein stability index
1,I13L,1.69
2,I13Y,2.1
3,I13A,2.02
4,I13F,1.96
5,I13V,1.72
6,I13S,1.99
7,I13K,2.53
8,F1Y,2.05
9,F1V,1.8
10,F1Q,2.54
11,F1A,2.28
12,F1C,2.42
13,F1W,1.82
14,F1T,2.01
15,F1E,1.81
16,F1G,2.32
17,F1P,2.18
18,F1K,2.44
19,F1M,2.12
20,F1I,1.95
21,F1L,1.93
22,F1N,2.12
23,E20N,2.19
24,E20S,2.41
25,E20M,2.88

row,Variant,protein stability index
1,E20C,1.79
2,E20F,1.82
3,E20I,1.99
4,E20W,2.86
5,E20K,1.87
6,E20V,1.9
7,E20H,1.46
8,T7M,2.19
9,T7A,1.92
10,T7P,2.01
11,T7S,2.07
12,T7C,3.13
13,T7F,2.03
14,T7N,1.36
15,T7K,2.16
16,T7Q,2.46
17,T7Y,2.31
18,T7H,2.24
19,T7V,1.86
20,T7W,2
21,T7R,1.89
22,T7D,2.01
23,H3C,1.95
24,H3T,2.75
25,H3M,2.25

row,Variant,protein stability index
1,H3G,1.82
2,H3I,2.7
3,H3V,1.65
4,H3P,2.41
5,H3A,3.32
6,H3N,2.7
7,H3S,1.72
8,H3Y,1.91
9,H3Q,1.69
10,H3F,1.96
11,K21T,1.85
12,K21Q,1.81
13,K21C,1.51
14,K21R,1.31
15,K21N,2.2
16,K21E,2.08
17,K21V,3.44
18,K21W,2.44
19,K21L,2.2
20,K21D,2.6
21,K21M,2.85
22,K21S,1.6
23,K21A,1.69
24,K21Y,3.31
25,T5N,2.23

row,Variant,protein stability index
1,T5S,1.98
2,T5F,2.25
3,T5D,2.13
4,T5R,1.53
5,T5L,1.97
6,T5A,1.25
7,T5G,1.46
8,T5H,2.23
9,T5W,1.46
10,T5Q,1.22
11,T5P,2.73
12,D4W,1.29
13,D4N,1.71
14,D4V,2.09
15,D4F,3.05
16,D4S,1.83
17,D4Y,3.37
18,D4Q,2.29
19,D4E,1.99
20,D4G,2.07
21,D4T,1.73
22,D4L,1.74
23,D4M,2.44
24,D4C,1.91
25,L10S,2.61

row,Variant,protein stability index
1,L10R,1.6
2,L10M,1.88
3,L10K,2.59
4,L10N,1.92
5,L10H,2.54
6,L10W,2.42
7,L10F,1.68
8,L10I,2.09
9,L10D,2.34
10,L10V,2.11
11,L10Q,2.19
12,L10C,1.94
13,L10A,2.17
14,L10Y,1.75
15,L10P,1.61
16,G16D,2.06
17,G16T,1.62
18,G16F,1.72
19,G16E,1.9
20,G16Y,2.51
21,G16I,1.89
22,G16C,1.83
23,G16M,2.14
24,G16A,1.88
25,G16R,1.6

row,Variant,protein stability index
1,G16L,1.64
2,G16P,3.4
3,G16N,2.07
4,V17W,1.61
5,V17R,2.25
6,V17A,2.81
7,V17Q,2.06
8,V17S,1.85
9,V17M,1.93
10,V17K,1.79
11,V17N,1.83
12,V17E,1.83
13,V17Y,1.54
14,V17D,1.92
15,V17C,1.47
16,V17F,1.69
17,E8R,1.85
18,E8W,2.35
19,E8Y,2.53
20,E8H,2.52
21,E8I,1.66
22,E8Q,2.64
23,E8D,2.02
24,E8N,1.79
25,E8A,1.66

row,Variant,protein stability index
1,E8F,2.17
2,E8C,1.62
3,E8V,2.95
4,D19S,1.79
5,D19E,1.62
6,D19W,3.85
7,D19L,1.39
8,D19M,2.1
9,D19K,1.7
10,D19H,1.65
11,D19P,1.8
12,D19A,2.33
13,D19Y,2.97
14,D19N,2.8
15,D19R,2.35
16,D19T,2.7
17,D19Q,1.22
18,L6T,1.81
19,L6C,1.97
20,L6M,1.85
21,L6K,2.4
22,L6H,2.35
23,L6R,2.53
24,L6Q,2.31
25,L6G,1.77

row,Variant,protein stability index
1,L6E,1.91
2,L6I,2.36
3,L6P,1.63
4,L6A,2.67
5,W2E,2.41
6,W2R,2.46
7,W2C,1.66
8,W2L,2.54
9,W2K,2.11
10,W2G,1.69
11,W2H,3
12,W2S,1.62
13,W2P,2.16
14,W2A,2
15,H18C,2.24
16,H18I,2.92
17,H18Q,1.5
18,H18F,1.92
19,H18D,2.1
20,H18V,1.61
21,H18T,2.13
22,H18G,1.79
23,H18K,1.53
24,H18A,2.38
25,H18M,2.48

row,Variant,protein stability index
1,H18S,2.72
2,W11D,2.82
3,W11M,1.76
4,W11S,2.18
5,W11F,1.59
6,W11H,2.52
7,W11N,2.19
8,W11I,1.79
9,W11T,2.35
10,W11K,2.52
11,W11E,2.85
12,W11P,3.12
13,F14N,1.45
14,F14G,2.21
15,F14T,2.39
16,F14L,1.8
17,F14Y,2.13
18,F14S,1.75
19,F14V,2.35
20,F14D,1.61
21,F14E,2.19
22,F14A,1.65
23,F14C,2.62
24,F14W,1.89
